Results from patent WO2019109974A1.

Target: hPD-L1(ECD)-mFc (human)
Assay: ELISA, hPD-L1-mFc coated

Chain of hPD-L1(ECD)-mFc (human) (chain, as listed by the source limits assumed): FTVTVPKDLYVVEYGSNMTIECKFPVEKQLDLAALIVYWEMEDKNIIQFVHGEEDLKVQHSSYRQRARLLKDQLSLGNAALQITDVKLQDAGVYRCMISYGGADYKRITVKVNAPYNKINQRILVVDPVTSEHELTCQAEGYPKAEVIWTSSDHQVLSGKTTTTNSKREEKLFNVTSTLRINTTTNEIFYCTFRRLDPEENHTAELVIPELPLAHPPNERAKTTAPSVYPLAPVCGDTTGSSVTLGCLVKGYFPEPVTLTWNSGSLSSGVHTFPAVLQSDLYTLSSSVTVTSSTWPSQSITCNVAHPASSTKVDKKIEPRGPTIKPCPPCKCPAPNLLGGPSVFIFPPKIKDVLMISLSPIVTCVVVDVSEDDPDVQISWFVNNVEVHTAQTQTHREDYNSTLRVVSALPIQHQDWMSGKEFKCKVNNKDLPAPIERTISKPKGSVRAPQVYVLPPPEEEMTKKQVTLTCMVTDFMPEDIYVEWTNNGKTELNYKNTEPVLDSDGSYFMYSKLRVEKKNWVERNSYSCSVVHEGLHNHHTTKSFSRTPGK

EC50: 0.142 µg/mL
Substance: Tecentriq (antibody)
